In patent US8431161B2, “Microparticle and pharmaceutical composition thereof” (Toray Industries, Inc., priority 2008, dated 2013):
Like-named read-outs stand apart in the source and are kept apart here.

Key:
[1] = Hypodermic administration of Exendin-4-encapsulating microparticles in SCID mouse, Exendin-4 in plasma; assay type: in vivo; details: 700 μg/0.2 ml
Method: (§1) The supernatant was centrifugally separated again for 5 minutes at 80×g, and the remaining particles were precipitated, and the supernatant was removed.
This solution was hypodermically injected in the back of 8-week-old SCID mouse (CB17/lcr-Prkdcscid/CrlCrlk) (from Crea Japan Inc.), and the blood was sampled at specific intervals from the caudal vein.

[2] = mouse, in vivo
Method: as §1

[3] = Body weight changes of pituitary gland extracted mouse after hGH microparticles; assay type: in vivo; details: hypodermic administration
[4] = mouse, in vivo; remark: listed apart in the source
Method: 300 mg of the prepared microparticles was suspended and dispersed in 3 ml of phosphate physiological buffer solution (PBS), and centrifuged for 5 minutes at 80×g to precipitate microparticles, and the supernatant was transferred into other tube. The supernatant was centrifuged again for 5 minutes at 80×g to precipitate the remaining particles, and the supernatant was removed. By re-dispersing in 1 ml of PBS after first time of centrifugal precipitation and second time of centrifugal precipitation, the same centrifugal cleaning operation was repeated three times, and the growth hormone not encapsulated in the microparticles were removed. Finally, the precipitation was dispersed again in 200 μl of PBS, and an administration solution was obtained.
This solution was injected hypodermically at two positions in the back of 10-week male Balb/C mouse, and the blood was sampled at specific time intervals from the caudal vein. In the sampled blood, heparin of final concentration of 3.31 U/ml was added, and plasma was collected by centrifugal separation for 5 minutes at 5,000 rpm, and the concentration of growth hormone in plasma was measured by using an ELISA kit.
By way of comparison, a non-granulated human growth hormone protein solution (700 μg/0.2 ml) was hypodermically administered in mouse, and the blood was sampled similarly. […]

Substance	blood level in 1 hour after administration (Exendin-4 in plasma) [1]	time in which blood level dropped to a level before administration [2]	body weight increase [3]	time in which blood level dropped to a level before administration [4]
Exendin-4 [non-granulated Exendin-4]	very high	a day		
human growth hormone [non-granulated human growth hormone]			about 5%	a day
